# T1: macrophage migration inhibitory factor (MIF) (human (endogenous in MCF-7)), P14174
# T1 chain: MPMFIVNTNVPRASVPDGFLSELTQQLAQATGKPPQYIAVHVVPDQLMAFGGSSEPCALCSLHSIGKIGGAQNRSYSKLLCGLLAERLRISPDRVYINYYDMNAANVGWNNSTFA
# B1: macrophage migration inhibitory factor (MIF), P14174 1-115 (natural protein)
# chain: T1 chain
# modifications: here or on the partner: proteoforms released from the trimers: unmodified, nitrosylated at C80, acetylated at K77, truncated; phosphorylated subunits also reported (site not given); proteoforms released from the trimers: unmodified, nitrosylated at C80, acetylated at K77, truncated; phosphorylated subunits also reported (site not given)
# Biological target: T1, macrophage migration inhibitory factor …
# Assay: native MS; native top-down proteomics: whole cell lysates of MCF-7 and MCF-7-EGFR (EGFR-overexpressing) cells fractionated by native SEC, concentrated with molecular weight cutoff filters, direct ESI infusion FAIMS-MSn with HCD, Orbitrap detection; endogenous assemblies
# Conditions: remark: other sources report otherwise
binder,measurement,value
B1,stoichiometry N,3
